# Measurements as given in patent publication US20180236053A1 (published 2018).
# B1: 27B6 scFv (tested as anti-CD38 CARs, versions V1, V2 and V3) (scFv)
# scFv: QVQLKQSGPGLVQPSQSLSITCTVSGFSLTSYNIDWVRQSPGKGLEWLGVIWSGGSTDYNAAFISRLKISKDDSKSQVFFKMNSLQSDDTAIYYCARHSPLVSTPDWYFDVWGAGTTVTVSSGGGGSGGGGSGGGGSQIVLTQSPAIMSASPGEKVTMTCSTSSSVSYMHWYQQKSGTSPKRWIYDTSKLASGVPARFSGSGSGTSYSLTINNMEAEDAATYSCQQWSSYPPTFGGGTKLEIK
# B2: 13F11 scFv (tested as anti-CD38 CARs, versions V1, V2 and V3) (scFv)
# scFv: QIQLVQSGPELKKPGETVKISCKASGYTFKKYGMNWVKQAPGKGLKWMGWINTNTGEPTYAEEFKGRFAFSLETSASTAYLQINNLKNEDTATYFCARWYYGSTPSSYTMDYWGQGTSVTVSSGGGGSGGGGSGGGGSETTVTQSPASLSVATGEKVTIRCITSTDIDDDMNWYQQKPGEPPKVLISEGNTLRPGVPSRFSSSGYGTDFVFTIENTLSEDVADYYCLQSNNMPYTFGGGTKLEIK
# B3: 10F7 scFv (tested as anti-CD38 CARs, versions V1, V2 and V3) (scFv)
# scFv: QAYLQQSGAELVRSGASVKMSCKASGYTFTSYNMHWVKQTPGQGLEWIGYIYPGNGGTNYNQKFKDKATLTADTSSSTAYMQISSLTSEDSAVYFCARGGQLGRPWFAYWGQGTLVTVSAGGGGSGGGGSGGGGSNIVLTQSPASLAASPGQRATISCRASESVDSYGNTFMYWYQQKPGQPPKLLIYLASNLESGVPVRFSGSGSRTDFTLTIDPVEADDAATYYCQQNNEDPWTFGGGTKVEIK
# B4: 25A10 scFv (tested as anti-CD38 CARs, versions V1, V2 and V3) (scFv)
# scFv: EVQLQQSGAELVRPGASVKLSCTASGFNIKDSLIHWVKQRPEQGLEWIGWIDPEDDKTKYAPKFQDKATLTADTSSNTAYLQLSTLTSEDTAIYYCVSRYINYYFAYWGQGTTLTVSSGGGGSGGGGSGGGGSDIVMTQSPSSLTVTAGEKVTMSCKSSQSLLHSGNQRNYLTWYQQKPGQPPKLLIYWASTRESGVPDRFTGSGSGTDFTLTISSVQAEDLAVYYCQNDYDYPYTFGGGTKLEIK
# B5: 29B4 scFv (tested as anti-CD38 CARs, versions V1, V2 and V3) (scFv)
# scFv: EVQLVESGGGLVKPGGSLKLSCAASGFTFSDYFMYWVRQTPEKRLEWVAIISDGGIYTYYPDSVKGRFTISRDNAKNNLYLQMSSLKSEDTAMYYCARDGRDDYDGWYFDVWGAGTTVTVSSGGGGSGGGGSGGGGSDIVMTQSHKFMSTSVGDRVNITCKASQDVNTAVAWYQQKPGQSPKLLIYWASTRHAGVPDRFTGSGSGTDYALTISSVQAEDLALYYCQQHYSTPRTFGGGTKLEIK
# B6: 16B5 scFv (tested as anti-CD38 CARs, versions V1, V2 and V3) (scFv)
# scFv: QAYLQQSGAELVRSGASVKMSCKASGYTFTSYNLHWVKQTPGQGLEWIGYIYPGNGGTNYNQKFKGKATLTADTSSSTAYMQISSLTSEDSAVYFCARGGIYYYGSSLDYWGQGTTLTVSSGGGGSGGGGSGGGGSNIVLTQSPASLAVSLGQRATISCRASESVDNYGTTFMYWYQQKPGQPPKLLIYLASNLESGVPARFSGSGSGTDFTLTIDPVEADDAATYYCQQNKEDPWTFGGGTKLEIK
# B7: GMB005 scFv (tested as anti-CD38 tool CARs, versions V1, V2 and V3) (scFv)
# scFv: EVQLLESGGGLVQPGGSLRLSCAVSGFTFNSFAMSWVRQAPGKGLEWVSAISGSGGGTYYADSVKGRFTISRDNSKNTLYLQMNSLRAEDTAVYFCAKDKILWFGEPVFDYWGQGTLVTVSSASGGGGSGGGGSGGGGSEIVLTQSPATLSLSPGERATLSCRASQSVSSYLAWYQQKPGQAPRLLIYDASNRATGIPARFSGSGSGTDFTLTISSLEPEDFAVYYCQQRSNWPPTFGQGTKVEIK
# Molecular target: CD38 antigen on the surface of cells (U266 CD38+, MOLP8, Daudi, T-ALL cell lines, activated T cells) (human, UniProt P28907 1-300)
row,Kd,Binder
1,2.2 nM,B1
2,0.8 nM,B2
3,30 nM,B3
4,0.25 nM,B4
5,0.52 nM,B5
6,3.2 nM,B6
7,119 nM,B7
